Patent US20230133281A1 (CHROMOXYION, published 2023)

Biological target: T1, Antigen SdW1a (free peptide) (Homo sapiens)
T1 construct: Synthetic peptide derived from DBY/DEAD; A KLH-conjugated form (SdW1b) was also used in screening; also called the antigen; 22-mer peptide
T1 peptide: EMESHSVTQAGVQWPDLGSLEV
Test: supernatant ELISA on the antigen, hybridoma supernatant
Protocol: Screening: Hybridoma cells were grown for 10 days at which point the number of positive hybridoma colonies was determined and after a further 3 days' incubation an aliquot of antibody supernatant was taken for screening. The supernatant was assayed for reactivity to the antigens SdW1a (free peptide—SEQ ID NO. 347) and SdW1b (KLH-peptide), firstly by antigen microarray using an IgG-specific secondary antibody, followed by supernatant ELISA to confirm any positive antibody-producing clones.

binding result: binds
B1: monoclonal antibody SdW1 RE5.B7.F9b (antibody, mouse IgG2a, V domains shown)
VH: EVKVEESGGGLVQPGGSMKISCVASGFTFKNYWMNWVRQSPEKGLEWVAEIRSKSNNNEKHYAESVKGRFTISRDDFKSSVYLQMNNLRTEDTGIYYCTGGTFDYWGQGTTLTVSS
VL: DVVVTQTPLSLPVSLGDQASISCRSSHSLVHSDGNTYLHWYLQKPGQSPKLLIYKVSNRFSGVPDRFSGSGSGTDFTLKISRVEAEDLGVYFCSQTTHVPPYTFGGGTQLEIK
notes: Tested as hybridoma culture supernatant; also called clone RE5; RE5 antibody
